Data published in the supplement of paper PMC10567573.

B1: BCL2L13 (parent)
chain: MASSSTVPLGFHYETKYVVLSYLG
B2: TRIB1 (parent)
chain: EIGTSDQIVPEYQEDSDISSFFC

Variants of: B1
Assay: protein stability index of a GFP-peptide fusion (GPS, HEK-293T) (PSI 1-6); higher = more stable
Conditions: c terminus: a fixed tail appended
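Also: lentivirally expressed fusions sorted by FACS into six bins by GFP to DsRed ratio, PSI derived from sequencing read proportions per bin multiplied by bin number.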

Protein stability index of substitutions, site by site:
L23: Q 1.48, I 2.11, Y 2.46, D 1.63, H 2.59, R 2.21, G 1.71, V 1.93, S 2.34, K 2.3, E 1.65, T 1.44, F 2.12, C 2.09, N 2.18, P 1.71, W 2.76, M 3.69
G24: R 2.06, Y 1.89, V 3.35, I 1.75, L 2.98, A 2.8, P 2.71, W 3.89, D 2.38, S 1.97, K 1.45, Q 2.62, F 3.97, C 2.21, N 2.1, T 2.13, H 2.42, M 1.84, E 2.05
Y22: H 3, A 1.89, K 2.37, I 2.02, G 2.51, M 2.7, W 2.89, N 1.63, R 1.69, F 2.49, P 1.47, S 3.81, E 1.85, Q 3.03, L 3.28, C 2.8, T 2.81, V 1.89, D 2.4
S21: Q 3.52, Y 2.51, T 2.72, W 3.36, R 3.78, P 2.35

Variants of: B2
Assay: as above
Conditions: c terminus: native

Protein stability index, by site and new letter:
I2: G 3.58, S 2.94, H 3.45, E 3.64, Q 2.73, Y 2.81, M 3.15, C 2.57, A 2.86, T 2.75, V 3.35, P 4.12, L 3.06, N 2.74, D 4.01, W 2.06, R 2.59, F 2.59, K 2.9
Q7: T 5.64, E 5.58, W 4, C 5.1, P 5.3, N 4.88, K 5.04, F 3.76, H 5, R 5.27, D 5.53, M 4.79, V 5.02, G 5.28, A 5.23, Y 4.43, S 5.2, I 4.95, L 4.94
V9: K 5.49, Q 5.78, C 5.31, A 5.16, G 5.29, Y 5.2, D 5.51, H 5.32, W 4.34, N 5.57, T 5.53, E 5.74, I 4.93, S 5.26, R 4.88, P 5.38, M 5.12, L 4.95, F 4.94
D15: E 2.2, H 3.28, A 3.59, F 2.24, C 2.62, G 3.71
T4: A 3.23, H 2.55, W 2.73, Y 3.1, I 2.62, P 3.22, G 3.12, F 3.18, M 2.67, S 2.87, E 2.86, V 2.67, L 2.77, C 2.33, R 2.88, D 2.32, N 2.39, Q 2.25, K 3.25
D6: G 5.55, M 4.3, P 4.84, Q 5.04, Y 4.65, S 5.45, L 4.45, C 4.7, A 4.92, I 4.07, K 5.18, N 4.69, W 4.11, R 5.04, T 5.07, H 4.9, E 4.77, F 4.14, V 4.57
E14: H 3.56, T 2.81, I 1.68, S 2.88, G 2.83, C 2.48, Y 2.43, R 4.42, N 2.94, A 2.81, Q 3.37, P 2, W 1.7, F 2.33, M 2.4, K 4.03, V 2.08, L 1.99, D 2.65
P10: Y 4.71, K 5.56, A 5.38, N 5.23, M 5.19, C 5.2, F 3.77, R 5.56, W 4.52, V 5.1, G 4.82, Q 4.9, I 4.09, E 5.54, L 4.87, S 5.59, H 5.41, T 5.48, D 5.63
I8: E 4.19, M 3.54, W 4.69, A 4.82, F 5.17, L 4.11, T 4.29, Q 3.93, R 3.56, K 4.03, S 5.18, Y 5.08, P 5.36, D 5.12, N 5.32, V 2.07, H 5.15, C 3.62, G 4.66
S5: T 2.2, D 2.97, N 2.9, L 2.95, Y 1.73, E 2.77, W 3.02, H 3.06, I 2.95, G 3.2, P 3.07, C 2.72, Q 2.42, M 2.56, K 3.47, V 3.15, F 2.31, R 2.77, A 2.81
Y12: G 3.27, C 3.68, D 5.11, A 3.25, S 4.19, E 4.77, P 3.4, I 2.91, R 4.61, L 3.06, Q 4.51, F 3.07, K 5.54, H 4.37, W 2.44, N 5.03, V 3.07, M 2.12, T 4.48
E11: S 3.1, V 2.52, P 3.5, H 3.79, K 4.4, L 4.33, M 3.43, R 3.68, F 3.63, A 4.09, N 3.08, Q 3.12, Y 3.46, D 2.18, I 3.43, T 2.77, W 4.16, G 2.25, C 2.61
G3: N 2.81, C 2.38, P 2.97, Y 2.38, K 2.65, R 2.31, F 2.32, D 2.55, A 2.64, L 2.29, S 2.57, Q 2.7, W 2.18, I 2.42, V 2.78, E 2.97, M 2.83, H 2.63, T 3.01
E1: K 1.98, N 2.32, F 2.15, Q 2.57, P 3.11, I 1.9, D 2.57, M 2.41, V 2.74, Y 2.11, R 2.77, G 2.58, H 1.97, C 2.38, S 2.42, W 2.46, A 2.7, L 2.21, T 2.97
Q13: W 1.72, C 2.59, N 1.9, K 3.39, E 2.77, T 1.97, G 2.13, M 2.36, L 2.77, P 3.5, H 2.24, R 2.92, D 2.9, F 1.81, S 2.43, A 2.54, V 2.52, Y 2.12, I 2.36
